These results are taken from patent US20230280343A1.

The test has as its target p300 (UniProt Q09472). Kind of test: not stated; comparator to the H-MAP-1 ELISA. (An ELISA detects its analyte on a solid surface through an enzyme-linked reagent.)

p300, sequence (Q09472 323-423 limits assumed): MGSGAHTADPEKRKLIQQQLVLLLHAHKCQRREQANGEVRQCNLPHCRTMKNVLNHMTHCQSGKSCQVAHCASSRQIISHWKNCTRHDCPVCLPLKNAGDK

As usually defined, the Kd is the constant that tells how readily two partners part at equilibrium. With “native HIF1α protein (from UniProt Q16665 786-826)”, the Kd came out at 0.38 nM.
